Test system: rabbit EE
Assay: Barrier breaker search: rabbit EE in U-chambers, monitoring RT (marker of PCP) and Isc
Format: cell-based
Conditions: at pH 2
From the text: Agents that increase paracellular permeability (PCP) in EE are potential contributors to GERD by enabling diffusion of luminal acid into the intercellular space. Therefore, substances were sought within the refluxate, meals and inflammation that could ‘break the barrier’. This was done by exposing rabbit EE in U-chambers to candidate inflammatory agents while both monitoring RT, as a marker of PCP, and Isc (short circuit current), as a marker of active transport. The inflammatory agents were selected based on presence in EE or on reports that they can break the barrier in other epithelia (47-60).

B1: pepsin: barrier breaker identified at pH 2 (protein, UniProt P0DJD8 63-388, looked up)
Pepsin A-3: VDEQPLENYLDMEYFGTIGIGTPAQDFTVVFDTGSSNLWVPSVYCSSLACTNHNRFNPEDSSTYQSTSETVSITYGTGSMTGILGYDTVQVGGISDTNQIFGLSETEPGSFLYYAPFDGILGLAYPSISSSGATPVFDNIWNQGLVSQDLFSVYLSADDQSGSVVIFGGIDSSYYTGSLNWVPVTVEGYWQITVDSITMNGEAIACAEGCQAIVDTGTSLLTGPTSPIANIQSDIGASENSDGDMVVSCSAISSLPDIVFTINGVQYPVPPSAYILQSEGSCISGFQGMNLPTESGELWILGDVFIRQYFTVFDRANNQVGLAPVA
For B1, the “breaks the barrier (RT as marker of PCP)” value was “barrier breakers”.

Reference: patent US8679766B2, “E-cadherin as a biomarker of gastroesophageal reflux disease” (The University of North Carolina at Chapel Hill, priority 2009, dated 2014)
